The assay concerns the target SETDB1 peptide trimethylated at K1178 (human (by the printed UniProt entry), UniProt Q15047, trimethyl-lysine at 1178). Briefly: ITC.

B1: MPP8 chromodomain (CD, residues 55-116) (domain or fragment)
chain: GEDVFEVEKILDMKTEGGKVLYKVRWKGYTSDDDTWEPEIHLEDCKEVLLEFRKKIAENKAK
Take B1: the Kd is > 80 µM.

(Values after paper PMC7618375 (2024).)
